In the test the target is calmodulin-binding domain of the original SK2 channel, SK2-a (UniProt P70604). The test can be described thus: ITC.
Chain of UniProt P70604 (P70604 396-487): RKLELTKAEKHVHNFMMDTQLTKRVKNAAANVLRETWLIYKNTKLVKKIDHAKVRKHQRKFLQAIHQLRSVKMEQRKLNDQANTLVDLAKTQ

The substance “calmodulin (rat) (from UniProt P0DP29 1-149) (natural protein; other documents disagree on this pair)” returned a dH of the first site (rising phase, two-site fit) of -34.7 kcal/mol.

The values are drawn from PMC3372094.
